Results as given in patent publication US20200277385A1.

Legend:
[1] = target: human CD303 antigen expressed on cells (human) (UniProt Q8WTT0); assay: cell-based or functional assay
[2] = target: human CD303 antigen expressed on cells (human) (UniProt Q8WTT0); assay: flow cytometry on CAL-1 cells transfected with CD303 (about 40,000-50,000 CD303/cell)
[3] = target: human CD303 antigen expressed on cells (human) (UniProt Q8WTT0); assay: flow cytometry on CAL-1 cells (experiment with BIIB059)

human CD303 antigen expressed on cells (human), sequence (Q8WTT0 whole entry): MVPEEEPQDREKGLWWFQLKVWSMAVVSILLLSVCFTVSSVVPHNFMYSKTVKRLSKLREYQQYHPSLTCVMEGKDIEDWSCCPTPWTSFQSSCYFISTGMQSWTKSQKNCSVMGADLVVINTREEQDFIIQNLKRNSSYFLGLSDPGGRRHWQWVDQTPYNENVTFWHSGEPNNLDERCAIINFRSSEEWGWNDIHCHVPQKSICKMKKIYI

ADCC Emax (% lysis), CAL-1 target cells [1]: 1.12 % lysis
Bmax (MFI) [2]: 382 MFI
EC50 [2]: 0.784 µg/mL
Bmax (MFI) [3]: 11.8 MFI
EC50 [3]: 0.6 µg/mL
B1: humanized antibody BIIB059 (antibody, INN chains, looked up, V domains shown)
VH: DVQLVESGGGLVKPGGSLRLSCAASGFTFSTYTMSWVRQAPGKGLEWVATISPGDSFGYYYPDSVQGRFTISRDNAKNSLYLQMNSLRAEDTAVYYCTRDIYYNYGAWFAYWGQGTLVTVSS
VL: DIQLTQSPSSLSASVGDRVTITCKASQSVDYDGDSYMNWYQQKPGKAPKLLIYAASTLESGVPSRFSGSGSGTDFTLTISSLQPEDFATYYCQQANEDPRTFGQGTKVEIK
